Consider two molecules from patent US20160319287A1.

Common to all, as to assay: cell-based or functional assay
The target of assay [1] is MBP-Int^C-TycB1 with the AceL-TerL MX1 mutant (M1^C).
The target in assay [2] is M1^C-Trx-H6 (AceL-TerL Int^C mutant M1: N46D, L55Q) [thioredoxin: P0AA25].
Assay [3] addresses M2^C-Trx-H6 (AceL-TerL Int^C mutant M2: S38G, N46I, N54D, L55Q) [thioredoxin: P0AA25].

No end group written: not given here. FI = 5(6)-carboxyfluorescein

Chain of MBP-Int^C-TycB1 with the AceL-TerL MX1 mutant (M1^C) (main, as listed by the source, stated change not applied): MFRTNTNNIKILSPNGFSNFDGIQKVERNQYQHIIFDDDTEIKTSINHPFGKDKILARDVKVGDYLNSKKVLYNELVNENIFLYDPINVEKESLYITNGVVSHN
Chain of M2^C-Trx-H6 (AceL-TerL Int^C mutant M2: S38G, N46I, N54D, L55Q) [thioredoxin: P0AA25] (P0AA25 other isoform, or with tags, fused parts or gaps S38G N46I N54D L55Q S38G N46I N54D L55Q): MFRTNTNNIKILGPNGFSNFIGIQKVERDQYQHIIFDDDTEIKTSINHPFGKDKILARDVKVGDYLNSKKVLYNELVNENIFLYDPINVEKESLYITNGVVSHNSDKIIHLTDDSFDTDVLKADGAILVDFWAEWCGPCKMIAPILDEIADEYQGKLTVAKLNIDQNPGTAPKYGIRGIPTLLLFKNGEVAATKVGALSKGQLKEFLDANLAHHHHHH
Chain of M1^C-Trx-H6 (AceL-TerL Int^C mutant M1: N46D, L55Q) [thioredoxin: P0AA25] (P0AA25 other isoform, or with tags, fused parts or gaps N46D L55Q N46D L55Q): as the sequence (P0AA25 other isoform, or with tags, fused parts or gaps S38G N46I N54D L55Q S38G N46I N54D L55Q) above, with G13S, I21D, D29N counted along it

In assay [1], {FI}-KKEFECVYGDTMVETEDGKIKIEDLYKRLA [pepWT^N (FI-KKEFE-IntN), synthetic peptide with the Int^N of the AceL-TerL intein] displayed a splicing rate at 8° C. against the M86 DnaB mutant intein of 13 fold higher, a splicing rate at 8° C. against the unevolved wild-type AceL-TerL intein of 15 fold higher and a splicing yield at 8° C. of 80 to 95%.

Regarding {FI}-KKEFECVSGDTMVETEDGKIKIEDLYKRLA [pepM3^N (FI-KKEFE-IntN with the M3 Int^N, Y3S)], the splicing rate at 37° C. against the wild-type in assay [2] was determined as 29 fold faster; in assay [3] it was 56 fold faster.
